Here are results for two molecules from patent publication US20060241289A1.

Values joined by “and” are separate entries in the source; they are usually repeats but may differ in a detail not shown here. Equal entries are not always repeated. Where two headings read alike, the source gives them in different places.

In assay [1] the target is human TSH receptor on CHO cells (human) (UniProt P16473). Briefly: cell-based or functional assay.
Assay [2] has the same target. The assay can be described thus: cell-based or functional assay. The source holds these as a separate data set.
For assay [3], the target named is TSH receptor coated onto plastic tubes (UniProt P16473). The assay can be described thus: TSHR coated tubes; 9D33 IgG 1 µg/mL; competitor 125I-TSH.
The target is the same in assay [4]. The assay can be described thus: TSHR coated tubes; 9D33 IgG 1 µg/mL; competitor 125I-9D33.
The target is the same in assay [5]. The assay can be described thus: TSHR coated tubes; 9D33 IgG 10 µg/mL; competitor 125I-TSH.
Assay [6] has the same target. Briefly: TSHR coated tubes; 9D33 IgG 0.1 µg/mL; competitor 125I-TSH.
For assay [7] the target is unchanged. Briefly: TSHR coated tubes; 9D33 IgG 10 µg/mL; competitor 125I-9D33.
Assay [8] has the same target. The assay can be described thus: TSHR coated tubes; 9D33 IgG 0.01 µg/mL; competitor 125I-TSH.
For assay [9] the target is unchanged. The assay can be described thus: TSHR coated tubes; 9D33 IgG 0.1 µg/mL; competitor 125I-9D33.
For assay [10] the target is unchanged. Briefly: TSHR coated tubes; 9D33 IgG 0.001 µg/mL; competitor 125I-TSH.
Assay [11] shares this target. Briefly: TSHR coated tubes; 9D33 IgG 0.01 µg/mL; competitor 125I-9D33.
The target is the same in assay [12]. The assay can be described thus: TSHR coated tubes; 9D33 IgG 0.001 µg/mL; competitor 125I-9D33.
Assay [13] has the same target. Briefly: TSHR coated tubes; 9D33 IgG 1 µg/mL; competitor 125I-hMAb TSHR1.
The target is the same in assay [14]. The assay can be described thus: TSHR coated tubes; 9D33 IgG 10 µg/mL; competitor 125I-hMAb TSHR1.
Assay [15] shares this target. The assay can be described thus: TSHR coated tubes; 9D33 IgG 0.1 µg/mL; competitor 125I-hMAb TSHR1.
For assay [16] the target is unchanged. The assay can be described thus: TSHR coated tubes; 9D33 IgG 0.01 µg/mL; competitor 125I-hMAb TSHR1.
For assay [17] the target is unchanged. Briefly: TSHR coated tubes; 9D33 IgG 0.001 µg/mL; competitor 125I-hMAb TSHR1.
For assay [18] the target is unchanged. The assay can be described thus: 125I-9D33 binding to TSHR coated tubes in the pool of healthy blood donor sera.
Assay [19] has the same target. Briefly: 125I-9D33 binding to TSHR coated tubes in the pool of healthy blood donor sera, no 90/672.

B1: 2B4 IgG (mouse monoclonal antibody to the TSHR) (antibody, from another filing, V domains shown)
VH: DVQLQQSGTVLARPGASVRMSCKASGYSFTRYWIHWLKQRPGQGLEWIGAIFPGNRDTSYNQRFKGKAEVTAVTSASTAYLDLSSLTNEDSAVYYCTRWPYYGSIYVNFDYWGQGTTLTVSS
VL: DIVMTQSPLSLPVSLGDQASISCRTSQNLVHRNGNTYLHWYLQKPGQSPKLLIYKISNRFSGVPDRFSGSGSGTDFTLKISRVEAEDLGVYFCSQGTHVPPTFGGGTKLEIKR
For B1, in assay [1], the mean pmol cyclic AMP/cell well; 2B4 IgG 100 µg/mL alone (pmol/cell well) was 0.331; the mean pmol cyclic AMP/cell well; hMAb TSHR1 Fab 5 ng/mL plus 2B4 IgG 100 µg/mL (pmol/cell well) came out at 2.94; the pmol cyclic AMP/cell well; 2B4 IgG 100 µg/mL alone (pmol/cell well) was 0.298 and 0.318 and 0.376; the pmol cyclic AMP/cell well; hMAb TSHR1 Fab 5 ng/mL plus 2B4 IgG 100 µg/mL (pmol/cell well) is 3.32 and 2.63 and 2.86. Moreover, in assay [1], the x basal stimulation; 2B4 IgG 100 µg/mL alone was determined as 0.46 x basal and the x basal stimulation; hMAb TSHR1 Fab 5 ng/mL plus 2B4 IgG 100 µg/mL was found to be 4 x basal. Further, in assay [2], the mean pmol cyclic AMP/cell well; 2B4 IgG 100 µg/mL alone (pmol/cell well) came out at 0.49; the mean pmol cyclic AMP/cell well; pTSH 0.5 ng/mL plus 2B4 IgG 100 µg/mL (pmol/cell well) was 0.78; the pmol cyclic AMP/cell well; 2B4 IgG 100 µg/mL alone (pmol/cell well) is 0.446 and 0.486 and 0.552; the pmol cyclic AMP/cell well; pTSH 0.5 ng/mL plus 2B4 IgG 100 µg/mL (pmol/cell well) is 0.878 and 0.71 and 0.742. For the same molecule, in assay [2], the x basal stimulation; 2B4 IgG 100 µg/mL alone came to 1.4 x basal and the x basal stimulation; pTSH 0.5 ng/mL plus 2B4 IgG 100 µg/mL was 2.3 x basal.

B2: 9D33 IgG (mouse monoclonal antibody to the TSHR) (antibody, V domains shown)
VH: DVQIQQPGTELVKPGASVRLSCKASGYTFTTYWMHWVKQRPGQGLEWIGEIDPSDSYTNYNQKFKGKATLTVDKSSSTAYMHLSSLTSEDSAVYYCSRNYGSGYYFDYWGQGTTLTVSS
VL: GVEMTQSPAIMSASPGEKVTMTCSASSSVSYMHWYQQKSGTSPKRWIYDTSKLASGVPARFSGSGSGTSYSLTISSMETEDAATYYCQQWSSNPWTFGGGTKLEIK
As to B2, the inhibition of 125I-TSH binding in [3] is 58%; in [5], 68%; in [6], 34%; in [8] it was 17%; in assay [10], 0%. The inhibition of 125I-9D33 binding is 64% in [4]; 71% in assay [7]; 35% in assay [9]; 9% in assay [11]; 4% in assay [12]. In addition, the inhibition of 125I-hMAb TSHR1 binding in assay [13] was 44%; in assay [14], 56%; in assay [15] it was 21%; in assay [16], 3%; in assay [17], 0%. For the same molecule, the 125I-9D33 bound (% total counts added) in assay [18] came to 11%; in [19], 15%.
